Measurements reported in patent US20150031112A1 (SHIRE HUMAN GENETIC THERAPIES, published 2015).

Target: the molecule itself
Assay: X-ray crystallography, crystallographic symmetry applied (self-association, homotrimer)

B1: NAGLU-kif (recombinant human alpha-N-acetylglucosaminidase expressed in HT1080 cells treated with kifunensine) (enzyme)
chain: DEAREAAAVRALVARLLGPGPAADFSVSVERALAAKPGLDTYSLGGGGAARVRVRGSTGVAAAAGLHRYLRDFCGCHVAWSGSQLRLPRPLPAVPGELTEATPNRYRYYQNVCTQSYSFVWWDWARWEREIDWMALNGINLALAWSGQEAIWQRVYLALGLTQAEINEFFTGPAFLAWGRMGNLHTWDGPLPPSWHIKQLYLQHRVLDQMRSFGMTPVLPAFAGHVPEAVTRVFPQVNVTKMGSWGHFNCSYSCSFLLAPEDPIFPIIGSLFLRELIKEFGTDHIYGADTFNEMQPPSSEPSYLAAATTAVYEAMTAVDTEAVWLLQGWLFQHQPQFWGPAQIRAVLGAVPRGRLLVLDLFAESQPVYTRTASFQGQPFIWCMLHNFGGNHGLFGALEAVNGGPEAARLFPNSTMVGTGMAPEGISQNEVVYSLMAELGWRKDPVPDLAAWVTSFAARRYGVSHPDAGAAWRLLLRSVYNCSGEACRGHNRSPLVRRPSLQMNTSIWYNRSDVFEAWRLLLTSAPSLATSPAFRYDLLDLTRQAVQELVSLYYEEARSAYLSKELASLLRAGGVLAYELLPALDEVLASDSRFLLGSWLEQARAAAVSEAEADFYEQNSRYQLTLWGPEGNILDYANKQLAGLVANYYTPRWRLFLEALVDSVAQGIPFQQHQFDKNVFQLEQAFVLSKQRYPSQPRGDTVDLAKKIFLKYYPRWVAGSW
modifications: N-linked high mannose glycans at N261, N272, N435, N503, N526 and N532 (numbered as amino acids 24-743)
notes: There is one molecule in the asymmetric unit, and the trimer is generated by crystallographic symmetry; also called NAGLU24-743; Naglu-kif R3
- binding result: binds
